Measurements reported in publication PMC4160250 (PLoS ONE, 2014).

B1: GST-fused UFD domain of UbE1 (residues 950-1058) (domain or fragment)
chain: not shown
notes: UbE1, residues 950-1058 (C-terminal Ub-fold domain, UFD), from the UbE1 that was cloned from a mouse cDNA library; vector pGEX-4T-3; also called GST-UFD; C-terminal Ub-fold domain; source: E. coli, purified
B2: UbP_C (C-terminal part of DC-UbP, residues 129-234), His-tagged (domain or fragment, human, UniProt Q8WUN7 129-234, looked up)
chain: MIEEKSDIETLDIPEPPPNSGYECQLRLRLSTGKDLKLVVRSTDTVFHMKRRLHAAEGVEPGSQRWFFSGRPLTDKMKFEELKIPKDYVVQVIVSQPVQNPTPVEN
notes: 15N-labelled where it is the observed protein of an NMR titration, unlabelled where it is titrated into 15N-UBA1; also called UbL domain of DC-UbP; UbL; source: E. coli, purified (Ni-NTA, Superdex-75)
B3: UbE1, recombinant, purified (enzyme, mouse, UniProt Q02053 1-1058, looked up)
chain: MSSSPLSKKRRVSGPDPKPGSNCSPAQSALSEVSSVPTNGMAKNGSEADIDESLYSRQLYVLGHEAMKMLQTSSVLVSGLRGLGVEIAKNIILGGVKAVTLHDQGTTQWADLSSQFYLREEDIGKNRAEVSQPRLAELNSYVPVTAYTGPLVEDFLSSFQVVVLTNSPLEAQLRVGEFCHSRGIKLVVADTRGLFGQLFCDFGEEMVLTDSNGEQPLSAMVSMVTKDNPGVVTCLDEARHGFETGDFVSFSEVQGMIQLNGCQPMEIKVLGPYTFSICDTSNFSDYIRGGIVSQVKVPKKISFKSLPASLVEPDFVMTDFAKYSRPAQLHIGFQALHQFCALHNQPPRPRNEEDATELVGLAQAVNARSPPSVKQNSLDEDLIRKLAYVAAGDLAPINAFIGGLAAQEVMKACSGKFMPIMQWLYFDALECLPEDKEALTEEKCLPRQNRYDGQVAVFGSDFQEKLSKQKYFLVGAGAIGCELLKNFAMIGLGCGEGGEVVVTDMDTIEKSNLNRQFLFRPWDVTKLKSDTAAAAVRQMNPYIQVTSHQNRVGPDTERIYDDDFFQNLDGVANALDNIDARMYMDRRCVYYRKPLLESGTLGTKGNVQVVIPFLTESYSSSQDPPEKSIPICTLKNFPNAIEHTLQWARDEFEGLFKQPAENVNQYLTDSKFVERTLRLAGTQPLEVLEAVQRSLVLQRPQTWGDCVTWACHHWHTQYCNNIRQLLHNFPPDQLTSSGAPFWSGPKRCPHPLTFDVNNTLHLDYVMAAANLFAQTYGLTGSQDRAAVASLLQSVQVPEFTPKSGVKIHVSDQELQSANASVDDSRLEELKATLPSPDKLPGFKMYPIDFEKDDDSNFHMDFIVAASNLRAENYDISPADRHKSKLIAGKIIPAIATTTAAVVGLVCLELYKVVQGHQQLDSYKNGFLNLALPFFGFSEPLAAPRHQYYNQEWTLWDRFEVQGLQPNGEEMTLKQFLDYFKTEHKLEITMLSQGVSMLYSFFMPAAKLKERLDQPMTEIVSRVSKRKLGRHVRALVLELCCNDESGEDVEVPYVRYTIR
notes: also called purified UbE1; source: E. coli (vector pET28a), purified
B4: His-tagged DC-UbP (natural protein, human, UniProt Q8WUN7 1-234, looked up)
chain: MGGCVGAQHDSSGSLNENSEGTGVALGRNQPLKKEKPKWKSDYPMTDGQLRSKRDEFWDTAPAFEGRKEIWDALKAAAHAFESNDHELAQAIIDGANITLPHGALTECYDELGNRYQLPVYCLAPPINMIEEKSDIETLDIPEPPPNSGYECQLRLRLSTGKDLKLVVRSTDTVFHMKRRLHAAEGVEPGSQRWFFSGRPLTDKMKFEELKIPKDYVVQVIVSQPVQNPTPVEN
notes: DC-UbP / UBTD2, human, full-length; vector pET22b(+); 15N-labelled (M9 medium) in the NMR titrations; also called His6-DC-UbP; full-length DC-UbP; source: E. coli, purified (Ni-NTA, Superdex-75)

Assays:
Conditions in all cases: both partners purified
[1] = target: B4; experiment: NMR titration; 15N-labelled DC-UbP (20 uM in Fig. S4C) titrated with GST-UFD, up to 5:1; relative peak intensities
[2] = target: B1; experiment: NMR titration; 15N-labelled UbP_N or UbP_C titrated with GST-UFD at a molar ratio of 1:3; peak intensity changes
[3] = target: B4; experiment: NMR titration; 15N-labelled DC-UbP (100 uM) titrated stepwise with unlabelled USP5, UbE1, FH or SCCH; 1H-15N HSQC, 20 mM phosphate, 50 mM NaCl, pH 6.5, 298 K
[4] = target: B3; experiment: as above

Binder: B1
- mean relative peak intensity of the UBD domain of DC-UbP at 5:1 molar ratio [1]: 0.69
- mean relative peak intensity of the UbL domain of DC-UbP at 5:1 molar ratio [1]: 0.44

Binder: B2
- binding result [2]: binds

Binder: B3
- mean relative peak intensity of the UBD domain of DC-UbP at 1:1 molar ratio (free DC-UbP = 1) [3]: 0.54
- mean relative peak intensity of the UbL domain of DC-UbP at 1:1 molar ratio (free DC-UbP = 1) [3]: 0.39

Binder: B4
- binding result [4]: binds
